Laboratory results taken from patent publication WO2008121813A2 (dated 2009).

Target: T1, human DUBA polypeptide (human, UniProt Q96G74 1-571)
T1 construct: Used for endogenous DUBA of HEK293 and TLR3/293 cells and for human DUBA in transfected cells (Western blot with the hamster antibodies); also called OTUD5; OTU domain containing 5
T1 sequence: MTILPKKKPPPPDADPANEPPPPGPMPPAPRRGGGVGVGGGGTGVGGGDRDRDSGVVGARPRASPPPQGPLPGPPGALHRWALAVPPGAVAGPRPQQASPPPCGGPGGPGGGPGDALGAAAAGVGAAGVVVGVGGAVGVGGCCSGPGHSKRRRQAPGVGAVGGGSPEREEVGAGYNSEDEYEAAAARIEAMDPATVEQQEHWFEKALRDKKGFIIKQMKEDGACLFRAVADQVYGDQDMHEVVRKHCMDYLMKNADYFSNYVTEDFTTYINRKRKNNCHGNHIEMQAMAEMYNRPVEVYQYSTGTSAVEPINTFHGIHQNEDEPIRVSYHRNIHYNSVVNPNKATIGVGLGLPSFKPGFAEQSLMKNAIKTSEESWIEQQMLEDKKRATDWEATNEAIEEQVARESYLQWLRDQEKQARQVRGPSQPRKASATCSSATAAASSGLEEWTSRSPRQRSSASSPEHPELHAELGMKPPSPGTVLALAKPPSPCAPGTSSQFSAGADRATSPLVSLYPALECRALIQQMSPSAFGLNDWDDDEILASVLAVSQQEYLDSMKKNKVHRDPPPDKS
Assay: anti-DUBA immunoprecipitation from TLR3/293 lysates at 0, 60 and 180 minutes, anti-TRAF3 Western blot

binding result: binds
B1: endogenous TRAF3 (enzyme, UniProt Q13114 1-568, looked up)
chain: MESSKKMDSPGALQTNPPLKLHTDRSAGTPVFVPEQGGYKEKFVKTVEDKYKCEKCHLVLCSPKQTECGHRFCESCMAALLSSSSPKCTACQESIVKDKVFKDNCCKREILALQIYCRNESRGCAEQLMLGHLLVHLKNDCHFEELPCVRPDCKEKVLRKDLRDHVEKACKYREATCSHCKSQVPMIALQKHEDTDCPCVVVSCPHKCSVQTLLRSELSAHLSECVNAPSTCSFKRYGCVFQGTNQQIKAHEASSAVQHVNLLKEWSNSLEKKVSLLQNESVEKNKSIQSLHNQICSFEIEIERQKEMLRNNESKILHLQRVIDSQAEKLKELDKEIRPFRQNWEEADSMKSSVESLQNRVTELESVDKSAGQVARNTGLLESQLSRHDQMLSVHDIRLADMDLRFQVLETASYNGVLIWKIRDYKRRKQEAVMGKTLSLYSQPFYTGYFGYKMCARVYLNGDGMGKGTHLSLFFVIMRGEYDALLPWPFKQKVTLMLMDQGSSRRHLGDAFKPDPNSSSFKKPTGEMNIASGCPVFVAQTVLENGTYIKDDTIFIKVIVDTSDLPDP
notes: RING finger-type ubiquitin ligase; also called TNF receptor-associated factor (TRAF3)
